Laboratory results as given in US20210277104A1 (Janssen / Centocor, published 2021).
Where a chain is given by its changes, count along the chain named. In names and notes the source's numbering stands.

B1: TNV148 (antibody, V domains shown)
VH: QVQLVESGGGVVQPGRSLRLSCAASGFIFSSYAMHWVRQAPGNGLEWVAFMSYDGSNKKYADSVKGRFTISRDNPKNTLYLQMNSLRAEDTAVYYCARDRGIAAGGNYYYYGMDVWGQGTTVTVSS
VL: EIVLTQSPATLSLSPGERATLSCRASQSVYSYLAWYQQKPGQAPRLLIYDASNRATGIPARFSGSGSGTDFTLTISSLEPEDFAVYYCQQRSNWPPFTFGPGTKVDIKR
B2: TNV196 (antibody, V domains shown)
VH: B1 VH with I28T, N43K, M51I, Y60S, I70V, P75S, Y80F, Y94F, A103G
VL: EIVLTQSPATLSLSPGERATLSCRASQSVYSYLAWYQQKPGQAPRLLIYDASNRATGIPARFSGSGSGTDFTLTISSLEPEDFAVYYCQQRSNWPPFTFGPGTKVDIK
B3: TNV86 (antibody, human IgG1, V domains shown)
VH: B1 VH
VL: B2 VL
notes: Totally human IgG1 kappa from hybridoma, tested as hybridoma supernatant; Variable regions identical to TNV148; also called GenTNV86.14.34; C417A

What was measured:
recombinant human TNFα [1] = biological target: T1, recombinant human TNFα (human, UniProt P01375 77-233, 125I-labeled in the receptor binding inhibition assay; unlabeled in the EIA); assay: Competition radioligand assay: inhibition of 5 ng/ml 125I-TNFα binding to plate-coated p55-sf2
T1 construct: also called huTNFα; tumor necrosis factor alpha

recombinant human TNFα [2] = biological target: T1, recombinant human TNFα; assay: cell-based or functional assay
recombinant human TNFα [3] = biological target: T1, recombinant human TNFα; assay: inhibition of 125I-TNFα binding to plate-coated p55-sf2; reference TNV118 and TNV14
Description: 50:1 of p55-sf2 at 0.5:g/ml in PBS was added to Optiplates to coat the wells during a one-hour incubation at 37° C. Serial dilutions of the eight TNV cell supernatants were prepared in 96-well round-bottom plates using PBS/0.1% BSA as diluent. […] The mixture was preincubated for one hour at RT. […] After 2 hrs at RT, Optiplates were washed three times with PBS-Tween. […] of Microscint-20 was added and the cpm bound determined using the TopCount […].
The concentrations of the TNV mAbs in their respective cell supernatants were first determined by standard ELISA analysis for human IgG.

Row | Binder | IC50 (read off the curve) (recombinant human TNFα [1]) [ng/mL] | neutralizing TNFα bioactivity (recombinant human TNFα [2]) [fold] | fold better at blocking TNF binding than TNV118 and TNV14 (recombinant human TNFα [3]) [fold]
1 | B1 | ~4 | 4 | ~4
2 | B2 | ~4 | 4 | 
3 | B3 |  |  | ~4
